The labels stand for the following.
B1: scFv; the commonest letter at each place (parent)
chain 1: EVKLDETGGGLVQPGRPMKLSCVASGFTFSDYWMNWVRQSPEKGLEWVAQIRNKPYNYETYYSDSVKGRFTISRDDSKSSVYLQMNNLRVEDMGIYYCTGSYYGMDYWGQGTSVTVS
chain 2: DVVMTQTPLSLPVSLGDQASISCRSSQSLVHSNGNTYLRWYLQKPGQSPKVLIYKVSNRFSGVPDRFSGSGSGTDFTLKISRVEAEDLGVYFCSQSTHVPWTFGGGTKLEIK

Variants of B1 are the subject of the data set “fluorescein”. As to the kind of experiment: Kd (Tite-Seq). The conditions noted are these: with fluorescein; format: scFv 4-4-20, heavy + light.
In data set [1] the parent is B1. As to the kind of experiment: yeast surface expression (ratio to wild type); higher = more expressed. The conditions noted are these: format: scFv 4-4-20, heavy + light.

chain 1 M105S D106E: the dissociation constant Kd with fluorescein was at least 10 µM. In data set [1], the yeast surface expression was 1.32.
In the case of chain 1 M105S D106S, in the data set with fluorescein, the dissociation constant (Kd) came to 6.96 µM. Also, the yeast surface expression in data set [1] turned out to be 0.843.
In the same order, the values of chain 1 M34V V37K are at least 10 µM and 0.747.
As for chain 1 M34V V37D, the dissociation constant Kd with fluorescein stood at 3.74 µM. Moreover, the yeast surface expression in data set [1] came out at 0.584.
With chain 1 M105A Y107M, the Kd with fluorescein was at least 10 µM. In addition, the yeast surface expression in data set [1] came out at 0.661.
On the same counts, the results for chain 1 M34G W36A are at least 10 µM and 1.01.
Take chain 1 M34G W36M: in the data set with fluorescein, the Kd is at least 10 µM. Also, in data set [1], the yeast surface expression came to 1.94.
On to chain 1 M105F D106L, for which the Kd with fluorescein was at least 10 µM. In addition, the yeast surface expression in data set [1] was found to be 0.356.
On to chain 1 M105F D106C, for which, in the data set with fluorescein, the Kd is at least 10 µM. For the same variant, in data set [1], the yeast surface expression amounted to 1.03.
On the same counts, the results for chain 1 M105F G109L are at least 10 µM and 0.369.
In the case of chain 1 M105H Y107G, the equilibrium dissociation constant (Kd) with fluorescein is at least 10 µM. Besides, in data set [1], the yeast surface expression was found to be 0.412.
Take chain 1 M105R D106N: in the data set with fluorescein, the dissociation constant (Kd) was found to be 0.61 µM. Moreover, the yeast surface expression in data set [1] was 0.717.
As for chain 1 M34F V37C, the Kd in the data set with fluorescein came to 0.00104 µM. Besides, the yeast surface expression in data set [1] amounted to 0.75.
Take chain 1 M105A G109F: the Kd with fluorescein was at least 10 µM. Moreover, the yeast surface expression in data set [1] was 0.203.
chain 1 M105A G109A: in the data set with fluorescein, the Kd is at least 10 µM. Further, the yeast surface expression in data set [1] worked out at 0.685.
With chain 1 M34F N35E, the dissociation constant (Kd) in the data set with fluorescein is at least 10 µM. Also, the yeast surface expression in data set [1] was found to be 0.811.
On the same counts, the results for chain 1 M34R V37Q are 0.205 µM and 0.276.
On the same counts, the results for chain 1 M34R V37W are 0.0353 µM and 3.88.
On to chain 1 M34H N35I, for which the Kd with fluorescein was at least 10 µM. Also, the yeast surface expression in data set [1] was 0.552.
For chain 1 M34H N35P, the Kd with fluorescein is at least 10 µM. Further, in data set [1], the yeast surface expression came out at 2.76.
Regarding chain 1 M105S G109T, the dissociation constant (Kd) in the data set with fluorescein was at least 10 µM. Moreover, the yeast surface expression in data set [1] came to 0.527.
On the same counts, the results for chain 1 M105S G109H are at least 10 µM and 0.261.
Turning to chain 1 M105S G109C, in the data set with fluorescein, the dissociation constant (Kd) is at least 10 µM. Also, the yeast surface expression in data set [1] was 0.182.
With chain 1 M34K W36F, in the data set with fluorescein, the dissociation constant (Kd) is at least 10 µM. Further, in data set [1], the yeast surface expression stood at 1.23.
In the same order, the values of chain 1 M34K W36C are at least 10 µM and 0.509.
For chain 1 M34K W36M, the equilibrium dissociation constant (Kd) in the data set with fluorescein was at least 10 µM. Further, the yeast surface expression in data set [1] turned out to be 0.273.
Take chain 1 M34Q V37T: the dissociation constant Kd with fluorescein is at least 10 µM. For the same variant, in data set [1], the yeast surface expression was 0.629.
As to chain 1 M34C V37F, in the data set with fluorescein, the Kd is at least 10 µM. The yeast surface expression in data set [1] amounted to 0.777.
Consider chain 1 M34C V37I, for which the Kd with fluorescein came to 0.00708 µM. In addition, in data set [1], the yeast surface expression turned out to be 0.76.
Take chain 1 M34C V37H: the Kd with fluorescein is at least 10 µM. In data set [1], the yeast surface expression was found to be 0.466.
Turning to chain 1 M105D D106T, in the data set with fluorescein, the Kd was at least 10 µM. In data set [1], the yeast surface expression was 0.588.
On to chain 1 M105D D106G, for which the Kd with fluorescein was at least 10 µM. In data set [1], the yeast surface expression stood at 0.347.
For the variant chain 1 M105D D106I, the dissociation constant Kd with fluorescein is at least 10 µM. The yeast surface expression in data set [1] came out at 0.844.
For the variant chain 1 M105D D106C, the Kd in the data set with fluorescein was at least 10 µM. Further, in data set [1], the yeast surface expression was found to be 0.616.
Regarding chain 1 M105W Y107C, the equilibrium dissociation constant (Kd) with fluorescein is at least 10 µM. Further, the yeast surface expression in data set [1] came to 0.264.
In the same order, the values of chain 1 M105W Y107P are at least 10 µM and 0.452.
Consider chain 1 M105I D106Y, for which the Kd with fluorescein is at least 10 µM. Besides, the yeast surface expression in data set [1] turned out to be 0.4.
In the same order, the values of chain 1 M34W N35C are at least 10 µM and 0.721.
For chain 1 M34W N35M, in the data set with fluorescein, the dissociation constant (Kd) is at least 10 µM. Further, the yeast surface expression in data set [1] is 0.653.
On the same counts, the results for chain 1 M34N W36Y are at least 10 µM and 0.542.
Regarding chain 1 M34N W36E, in the data set with fluorescein, the Kd is at least 10 µM. In data set [1], the yeast surface expression was determined as 0.587.
For chain 1 M34N W36A, in the data set with fluorescein, the dissociation constant Kd is at least 10 µM. Moreover, the yeast surface expression in data set [1] turned out to be 0.608.
With chain 1 M105A D106V, in the data set with fluorescein, the Kd was at least 10 µM. Also, the yeast surface expression in data set [1] came to 0.494.
On the same counts, the results for chain 1 M105A W108L are 0.00184 µM and 0.505.
Turning to chain 1 M105A W108Q, the Kd with fluorescein was at least 10 µM. For the same variant, the yeast surface expression in data set [1] was 0.38.
chain 1 M34G V37R: the dissociation constant (Kd) with fluorescein was at least 10 µM. The yeast surface expression in data set [1] was found to be 1.62.
In the same order, the values of chain 1 M34R W36P are at least 10 µM and 1.27.
On to chain 1 M34Q N35S, for which the Kd with fluorescein is at least 10 µM. In addition, in data set [1], the yeast surface expression stood at 0.621.
In the same order, the values of chain 1 M34F W36Y are 0.00468 µM and 0.948.
On the same counts, the results for chain 1 M34F W36M are 0.0562 µM and 0.872.
Regarding chain 1 M105H G109T, in the data set with fluorescein, the Kd is at least 10 µM. Also, the yeast surface expression in data set [1] was found to be 0.442.
In the same order, the values of chain 1 M34L N35T are at least 10 µM and 0.824.
On the same counts, the results for chain 1 M34L N35I are at least 10 µM and 0.531.
In the case of chain 1 M34L N35P, the Kd in the data set with fluorescein was at least 10 µM. Further, the yeast surface expression in data set [1] amounted to 1.48.
Consider chain 1 M105L G109C, for which the dissociation constant Kd in the data set with fluorescein is at least 10 µM. The yeast surface expression in data set [1] was 0.26.
On to chain 1 M34I W36Q, for which the Kd in the data set with fluorescein is at least 10 µM. Besides, the yeast surface expression in data set [1] worked out at 0.283.
In the case of chain 1 M34I W36K, the Kd with fluorescein was at least 10 µM. Further, the yeast surface expression in data set [1] turned out to be 0.24.
With chain 1 M34I W36F, the dissociation constant Kd in the data set with fluorescein amounted to 0.0107 µM. For the same variant, the yeast surface expression in data set [1] worked out at 0.811.

The values above are taken from the FLAb antibody collection (doi:10.7554/elife.23156).
